Laboratory results published in IntAct's records for PubMed 31515488.

B1: Centrosomal protein of 55 kDa (Homo sapiens), Q53EZ4 (parent)
chain: MSSRSTKDLIKSKWGSKPSNSKSETTLEKLKGEIAHLKTSVDEITSGKGKLTDKERHRLLEKIRVLEAEKEKNAYQLTEKDKEIQRLRDQLKARYSTTTLLEQLEETTREGERREQVLKALSEEKDVLKQQLSAATSRIAELESKTNTLRLSQTVAPNCFNSSINNIHEMEIQLKDALEKNQQWLVYDQQREVYVKGLLAKIFELEKKTETAAHSLPQQTKKPESEGYLQEEKQKCYNDLLASAKKDLEVERQTITQLSFELSEFRRKYEETQKEVHNLNQLLYSQRRADVQHLEDDRHKTEKIQKLREENDIARGKLEEEKKRSEELLSQVQFLYTSLLKQQEEQTRVALLEQQMQACTLDFENEKLDRQHVQHQLHVILKELRKARNQITQLESLKQLHEFAITEPLVTFQGETENREKVAASPKSPTAALNESLVECPKCNIQYPATEHRDLLVHVEYCSK
B2: Scaffold protein ILK (Homo sapiens), Q13418 (parent)
chain: MDDIFTQCREGNAVAVRLWLDNTENDLNQGDDHGFSPLHWACREGRSAVVEMLIMRGARINVMNRGDDTPLHLAASHGHRDIVQKLLQYKADINAVNEHGNVPLHYACFWGQDQVAEDLVANGALVSICNKYGEMPVDKAKAPLRELLRERAEKMGQNLNRIPYKDTFWKGTTRTRPRNGTLNKHSGIDFKQLNFLTKLNENHSGELWKGRWQGNDIVVKVLKVRDWSTRKSRDFNEECPRLRIFSHPNVLPVLGACQSPPAPHPTLITHWMPYGSLYNVLHEGTNFVVDQSQAVKFALDMARGMAFLHTLEPLIPRHALNSRSVMIDEDMTARISMADVKFSFQCPGRMYAPAWVAPEALQKKPEDTNRRSADMWSFAVLLWELVTREVPFADLSNMEIGMKVALEGLRPTIPPGISPHVCKLMKICMNEDPAKRPKFDMIVPILEKMQDK
partner: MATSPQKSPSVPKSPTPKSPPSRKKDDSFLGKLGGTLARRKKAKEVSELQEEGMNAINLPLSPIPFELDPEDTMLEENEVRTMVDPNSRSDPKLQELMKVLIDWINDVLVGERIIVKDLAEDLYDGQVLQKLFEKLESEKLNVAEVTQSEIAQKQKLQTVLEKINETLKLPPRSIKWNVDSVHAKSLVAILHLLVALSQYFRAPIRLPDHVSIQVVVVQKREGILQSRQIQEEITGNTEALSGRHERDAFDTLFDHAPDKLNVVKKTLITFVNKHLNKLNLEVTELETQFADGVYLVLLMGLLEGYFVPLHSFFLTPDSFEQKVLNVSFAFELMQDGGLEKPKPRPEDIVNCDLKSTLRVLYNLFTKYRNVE

Variants of: B1
Conditions: with pdc6i_human PDCD6IP

Variant	effect of a mutation on the interaction
L59F	with no effect
C236R	with no effect
E321K	with no effect
A244P	with no effect
R348K	with no effect

Variants of: B1
Conditions: with dpolm_human POLM

Variant	effect of a mutation on the interaction
C236R	with no effect
A244P	with no effect
R348K	with no effect

Variants of: B1
Conditions: with tead4_human TEAD4, Q15561
Sequence of tead4_human TEAD4, Q15561 (Q15561 whole entry): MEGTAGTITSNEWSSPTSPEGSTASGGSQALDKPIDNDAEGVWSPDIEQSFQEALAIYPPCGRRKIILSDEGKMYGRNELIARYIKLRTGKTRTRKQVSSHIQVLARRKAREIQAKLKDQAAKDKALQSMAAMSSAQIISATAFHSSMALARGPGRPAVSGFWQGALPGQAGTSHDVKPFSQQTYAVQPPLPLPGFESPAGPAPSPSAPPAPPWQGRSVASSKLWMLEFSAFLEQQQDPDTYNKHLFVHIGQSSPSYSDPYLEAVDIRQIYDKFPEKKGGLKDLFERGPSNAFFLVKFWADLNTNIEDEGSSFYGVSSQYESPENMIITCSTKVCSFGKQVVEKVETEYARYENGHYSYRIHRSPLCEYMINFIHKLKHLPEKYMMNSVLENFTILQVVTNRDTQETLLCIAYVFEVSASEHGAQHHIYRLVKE

Variant	effect of a mutation on the interaction
C236R	with no effect
A244P	with no effect
R348K	with no effect

Variants of: B1
Conditions: with anx11_human ANXA11, P50995
Sequence of anx11_human ANXA11, P50995 (P50995 whole entry): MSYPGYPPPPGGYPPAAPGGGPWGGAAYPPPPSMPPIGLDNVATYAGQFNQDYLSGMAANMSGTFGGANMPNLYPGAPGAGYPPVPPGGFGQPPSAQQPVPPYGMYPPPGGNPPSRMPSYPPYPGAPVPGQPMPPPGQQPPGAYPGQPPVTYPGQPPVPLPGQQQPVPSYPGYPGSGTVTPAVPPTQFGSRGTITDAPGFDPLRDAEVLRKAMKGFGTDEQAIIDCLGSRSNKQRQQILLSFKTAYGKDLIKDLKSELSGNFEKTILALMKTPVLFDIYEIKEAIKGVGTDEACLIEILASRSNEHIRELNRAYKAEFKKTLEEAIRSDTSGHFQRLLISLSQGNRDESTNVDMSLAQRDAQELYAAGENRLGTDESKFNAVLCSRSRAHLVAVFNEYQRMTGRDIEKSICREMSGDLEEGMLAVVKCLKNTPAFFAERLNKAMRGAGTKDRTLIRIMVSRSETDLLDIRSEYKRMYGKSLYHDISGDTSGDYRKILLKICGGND

Variant	effect of a mutation on the interaction
C236R	with no effect
A244P	disrupting interaction strength
R348K	with no effect

Variants of: B2
Conditions: with parva_human PARVA

Variant	effect of a mutation on the interaction
Q362H	with no effect
A262V	with no effect
Y278H	disrupting interaction strength
M425I	with no effect
V340G	with no effect
R46H	with no effect
R349H	disrupting interaction strength
K223N	disrupting interaction strength
L311I	with no effect
